{"source": "patent US11608532B2", "about": "“Precision medicine for treating and preventing suicidality” (Indiana University Research and Technology Corporation, priority 2017, dated 2023)", "origin": "cited, not measured here", "molecules": {"B1": {"name": "CAT-354 (antibody, chains of the INN, looked up, V domains shown)", "VH": "QVQLVQSGAEVKKPGASVKVSCKASGYTFTNYGLSWVRQAPGQGLEWMGWISANNGDTNYGQEFQGRVTMTTDTSTSTAYMELRSLRSDDTAVYYCARDSSSSWARWFFDLWGRGTLVTVSS", "VL": "SYVLTQPPSVSVAPGKTARITCGGNIIGSKLVHWYQQKPGQAPVLVIYDDGDRPSGIPERFSGSNSGNTATLTISRVEAGDEADYYCQVWDTGSDPVVFGGGTKLTVL"}, "B2": {"name": "certolizumab (antibody, chains of the INN, looked up, V domains shown)", "VH": "EVQLVESGGGLVQPGGSLRLSCAASGYVFTDYGMNWVRQAPGKGLEWMGWINTYIGEPIYADSVKGRFTFSLDTSKSTAYLQMNSLRAEDTAVYYCARGYRSYAMDYWGQGTLVTVSS", "VL": "DIQMTQSPSSLSASVGDRVTITCKASQNVGTNVAWYQQKPGKAPKALIYSASFLYSGVPYRFSGSGSGTDFTLTISSLQPEDFATYYCQQYNIYPLTFGQGTKVEIK"}, "B3": {"name": "siltuximab (antibody, chains of the INN, looked up, V domains shown)", "VH": "EVQLVESGGKLLKPGGSLKLSCAASGFTFSSFAMSWFRQSPEKRLEWVAEISSGGSYTYYPDTVTGRFTISRDNAKNTLYLEMSSLRSEDTAMYYCARGLWGYYALDYWGQGTSVTVSS", "VL": "QIVLIQSPAIMSASPGEKVTMTCSASSSVSYMYWYQQKPGSSPRLLIYDTSNLASGVPVRFSGSGSGTSYSLTISRMEAEDAATYYCQQWSGYPYTFGGGTKLEIK"}, "B4": {"name": "Siltuximab (antibody, chains of the INN, looked up, V domains shown)", "VH": "B3 VH", "VL": "B3 VL"}}, "system": "individual top biomarkers for suicidality", "note": "Where two headings read alike, the source gives them in different places."}
{"molecule": "B1", "values": [{"measurement": "Step 6 Drugs that Modulate the Biomarker in Opposite Direction to Suicide", "setting": "biomarker IL13 (interleukin 13)", "value": "CAT-354"}]}
{"molecule": "B2", "values": [{"measurement": "TNF modulated by drug in opposite direction to suicide", "setting": "D. Top Biomarkers in Bipolar Disorder, direction of change in suicidality (I) DE/1, (I) AP/1", "value": "certolizumab,"}]}
{"molecule": "B3", "values": [{"measurement": "IL6 modulated by drug in opposite direction to suicide", "setting": "B. Top Biomarkers in Males, direction of change in suicidality I, AP/2", "value": "siltuximab"}]}
{"molecule": "B4", "values": [{"measurement": "Step 6 Drugs that Modulate the Biomarker in Opposite Direction to Suicide", "setting": "biomarker IL6 (interleukin 6)", "value": "Siltuximab"}]}
